Test results reported in PMC6152618, “Antimicrobial Activity of Truncated and Polyvalent Peptides Derived from the FKCRRWQWRMKKGLA Sequence against Escherichia coli ATCC 25922 and Staphylococcus aureus ATCC 25923” (Molecules : A Journal of Synthetic Chemistry and Natural …, 2017).

Experiments:
[1] = tested on: Escherichia coli ATCC 25922; type: cell-based; conditions: n = 2
Method: (§1) The MIC was determined using a microdilution assay. In brief, bacterial strains were incubated for 18 to 24 h at 37 °C in an Müller-Hinton (MH) broth until an optical density of 0.15 to 0.30 (620 nm) was obtained. Next, 90 μL of Mueller-Hinton broth (MHB) was mixed with […], and serial dilutions (200, 100, 50, 25, 12.5 and 6.2) were prepared in 96-well microplates (final volume 100 μL/well). Then, 10 μL of inoculum (2 × 10^6 CFU/mL) was added to each well. The final volume in each well was 100 μL. Then they were incubated for 24 h at 37 °C; the absorbance at 620 nm was measured using an Asys Expert Plus ELISA reader. For determining the MBC, a small sample was taken from each well using an inoculation loop, and then was spread on MH agar plates and incubated overnight at 37 °C. MBC was considered on the plate which presented no bacterial growth. Each of these tests was performed twice (n = 2).

[2] = tested on: Staphylococcus aureus ATCC 25923; type: cell-based; conditions: n = 2
Method: as §1

[3] = microdilution, Mueller-Hinton broth, 24 h at 37 °C, absorbance 620 nm
[4] = sample of each well spread on MH agar, overnight 37 °C, no bacterial growth

B1: BLF: bovine lactoferrin protein, control (protein, UniProt P24627 20-708, looked up)
Lactotransferrin: APRKNVRWCTISQPEWFKCRRWQWRMKKLGAPSITCVRRAFALECIRAIAEKKADAVTLDGGMVFEAGRDPYKLRPVAAEIYGTKESPQTHYYAVAVVKKGSNFQLDQLQGRKSCHTGLGRSAGWIIPMGILRPYLSWTESLEPLQGAVAKFFSASCVPCIDRQAYPNLCQLCKGEGENQCACSSREPYFGYSGAFKCLQDGAGDVAFVKETTVFENLPEKADRDQYELLCLNNSRAPVDAFKECHLAQVPSHAVVARSVDGKEDLIWKLLSKAQEKFGKNKSRSFQLFGSPPGQRDLLFKDSALGFLRIPSKVDSALYLGSRYLTTLKNLRETAEEVKARYTRVVWCAVGPEEQKKCQQWSQQSGQNVTCATASTTDDCIVLVLKGEADALNLDGGYIYTAGKCGLVPVLAENRKSSKHSSLDCVLRPTEGYLAVAVVKKANEGLTWNSLKDKKSCHTAVDRTAGWNIPMGLIVNQTGSCAFDEFFSQSCAPGADPKSRLCALCAGDDQGLDKCVPNSKEKYYGYTGAFRCLAEDVGDVAFVKNDTVWENTNGESTADWAKNLNREDFRLLCLDGTRKPVTEAQSCHLAVAPNHAVVSRSDRAAHVKQVLLHQQALFGKNGKNCPDKFCLFKSETKNLLFNDNTECLAKLGGRPTYEEYLGTEYVTAIANLKKCSTSPLLEACAFLTR
>50 µM: MIC E. coli ATCC 25922 [1, 3] | MBC E. coli ATCC 25922 [1, 4] | MIC S. aureus ATCC 25923 [2, 3] | MBC S. aureus ATCC 25923 [2, 4]
